Here are results for 1 molecule from article PMC4287557 (PLoS Pathogens, 2015).

For one assay, the target named is JRFL gp120 monomer (HIV-1 subtype B strain JRFL, UniProt Q75760). As to the kind of experiment: BLI. Conditions: both partners purified.
The next assay has as its target 16055 gp120 monomer (HIV-1 subtype C strain 16055). As to the kind of experiment: BLI. The conditions noted are these: both partners purified.

B1: VRC01 IgG (antibody, V domains shown)
VH: QVQLVQSGGQMKKPGESMRISCRASGYEFIDCTLNWIRLAPGKRPEWMGWLKPRGGAVNYARPLQGRVTMTRDVYSDTAFLELRSLTVDDTAVYFCTRGKNCDYNWDFEHWGRGTPVIVSS
VL: EIVLTQSPGTLSLSPGETAIISCRTSQYGSLAWYQQRPGQAPRLVIYSGSTRAAGIPDRFSGSRWGPDYNLTISNLESGDFGVYYCQQYEFFGQGTKVQVD
notes: also called bNAb VRC01
Regarding B1, the binding result with JRFL gp120 monomer and with 16055 gp120 monomer was “binds” in each case.
